Source: patent US20150183867A1 (AbbVie / Abbott, published 2015)
Values joined by “and” are separate entries in the source; they are usually repeats but may differ in a detail not shown here. Equal entries are not always repeated.

Experiments:
IGF-I = target: T1, IGF-I (UniProt P05019 49-118); test: direct bind ELISA, antigen on plate; N-terminal VD
T1 construct: Bought reagent; also called IGF1; IGF-1
Procedure: (§1) Enzyme Linked Immunosorbent Assays to screen for antibodies that bind a desired target antigen were performed as follows. High bind ELISA plates (Corning Costar #3369, Acton, Mass.) were coated with 100 μL/well of 10 μg/ml of desired target antigen (R&D Systems, Minneapolis, Minn.) or desired target antigen extra-cellular domain/FC fusion protein (R&D Systems, Minneapolis, Minn.) or monoclonal mouse anti-polyHistidine antibody (R&D Systems # MAB050, Minneapolis, Minn.) in phosphate buffered saline (10×PBS, Abbott Bioresearch Center, Media Prep# MPS-073, Worcester, Mass.) overnight at 4° C. Plates were washed four times with PBS containing 0.02% Tween 20. Plates were blocked by the addition of 300 μL/well blocking solution (non-fat dry milk powder, various retail suppliers, diluted to 2% in PBS) for 1/2 hour at room temperature. Plates were washed four times after blocking with PBS containing 0.02% Tween 20.
(§2) One hundred microliters of antibody or DVD-Ig preparations diluted in blocking solution as described above was added to the desired target antigen plate or desired target antigen/FC fusion plate or the anti-polyHistidine antibody/His tagged desired target antigen plate prepared as described above and incubated for 1 hour at room temperature. Wells were washed four times with PBS containing 0.02% Tween 20.
(§3) One hundred microliters of 10 ng/mL goat anti-human IgG-FC specific HRP conjugated antibody (Southern Biotech #2040-05, Birmingham, Ala.) was added to each well of the desired target antigen plate or anti-polyHistidine antibody/Histidine tagged desired target antigen plate. Alternatively, one hundred microliters of 10 ng/mL goat anti-human IgG-kappa light chain specific HRP conjugated antibody (Southern Biotech #2060-05 Birmingham, Ala.) was added to each well of the desired target antigen/FC fusion plate and incubated for 1 hour at room temperature. Plates were washed 4 times with PBS containing 0.02% Tween 20.

IGF-II = target: T2, IGF-II (UniProt P01344 25-91); test: direct bind ELISA, antigen on plate; N-terminal VD
T2 construct: Bought reagent; also called IGF2; IGF-2
Procedure: as §1, §2, §3

Aβ1-42 [1] = target: T3, Aβ1-42 (UniProt P05067 672-713); test: Aβ 1-42 ELISA, peptide on plate; C-terminal VD
T3 construct: domain: Aβ1-42; Aβ 1-42 is a part of it; also called A beta
Procedure: (§4) ELISA assays were performed to screen for antibodies that bind a desired target antigen as follows. Maxisorb NUNC Immuno plates were coated with 100 μL/well of 1 μg/ml of Aβ1-42 diluted in coating buffer overnight at 6° C. Plates were washed three times with PBS containing 0.02% Tween 20. Blocking solution was prepared by dissolving the blocking reagent for ELISA (Roche) in 100 mL water and then diluted further 1:10 prior to use. Plates were blocked by the addition of 265 μL/well blocking solution for 2 hours at room temperature. Plates were washed three times after blocking with PBS containing 0.02% Tween 20.
(§5) Antibody or DVD-Igs were diluted to 100 ng/μL in PBST+0.5% BSA and serially diluted 1:3. One hundred microliters of antibody or DVD-Ig preparations was added to the plate and incubated for 2 hour at room temperature. Wells were washed three times with PBS containing 0.02% Tween 20.
(§6) One hundred microliters of TMB solution was added to each well and incubated for 10 minutes. TMB solution was prepared by mixing 20 mL 100 mM natrium-acetate pH4.9 with 200 μL TMB solution (Roche #92817060) and 29.5 μL 3% H₂O₂. The reaction was stopped by the addition of 50 μL 1N sulphuric acid. Plates were read spectrophotometrically at a wavelength of 450 nm.

IL-18 = target: T4, IL-18 (UniProt Q14116 37-193, limits assumed); test: direct bind ELISA, antigen on plate; N-terminal VD
T4 construct: Bought reagent
Procedure: as §1, §2, §3

Recombinant Human IL-1β = target: T5, Recombinant Human IL-1β (human, UniProt P01584 117-269); test: direct bind ELISA, antigen on plate; parent antibody
T5 construct: Bought reagent; also called IL-1B
Procedure: as §1, §2, §3

[2] = target: T6, Repulsive Guidence Molecule A (UniProt Q96B86 48-422, limits assumed); test: SPR (Biacore), antibody captured; parent antibody
T6 construct: Bought reagent for the ELISA; also called RGM-A; RGMa
T6 sequence (looked up): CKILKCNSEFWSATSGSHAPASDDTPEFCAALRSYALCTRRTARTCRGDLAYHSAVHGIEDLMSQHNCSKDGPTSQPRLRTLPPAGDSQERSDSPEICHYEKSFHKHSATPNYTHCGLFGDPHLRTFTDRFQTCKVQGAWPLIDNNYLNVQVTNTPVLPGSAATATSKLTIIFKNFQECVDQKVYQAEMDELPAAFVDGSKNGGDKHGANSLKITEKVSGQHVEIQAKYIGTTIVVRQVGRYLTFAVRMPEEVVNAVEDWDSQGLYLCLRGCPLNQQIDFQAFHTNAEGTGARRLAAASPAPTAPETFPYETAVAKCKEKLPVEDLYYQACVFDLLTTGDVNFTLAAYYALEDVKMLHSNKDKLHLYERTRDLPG
Procedure: The BIACORE assay (Biacore, Inc, Piscataway, N.J.) determines the affinity of antibodies or DVD-Ig with kinetic measurements of on-rate and off-rate constants. Binding of antibodies or DVD-Ig to a target antigen (for example, a purified recombinant target antigen) is determined by surface plasmon resonance-based measurements with a Biacore® 1000 or 3000 instrument (Biacore® AB, Uppsala, Sweden) using running HBS-EP (10 mM HEPES [pH 7.4], 150 mM NaCl, 3 mM EDTA, and 0.005% surfactant P20) at 25° C. All chemicals are obtained from Biacore® AB (Uppsala, Sweden) or otherwise from a different source as described in the text. For example, approximately 5000 RU of goat anti-mouse IgG, (Fcγ), fragment specific polyclonal antibody (Pierce Biotechnology Inc, Rockford, Ill.) diluted in 10 mM sodium acetate (pH 4.5) is directly immobilized across a CMS research grade biosensor chip using a standard amine coupling kit according to manufacturer's instructions and procedures at 25 μg/ml. Unreacted moieties on the biosensor surface are blocked with ethanolamine. Modified carboxymethyl dextran surface in flowcell 2 and 4 is used as a reaction surface. Unmodified carboxymethyl dextran without goat anti-mouse IgG in flow cell 1 and 3 is used as the reference surface. For kinetic analysis, rate equations derived from the 1:1 Langmuir binding model are fitted simultaneously to association and dissociation phases of all eight injections (using global fit analysis) with the use of Biaevaluation 4.0.1 software. Purified antibodies or DVD-Ig are diluted in HEPES-buffered saline for capture across goat anti-mouse IgG specific reaction surfaces. Antibodies or DVD-Ig to be captured as a ligand (25 μg/ml) are injected over reaction matrices at a flow rate of 5 μl/min. […] The equilibrium dissociation constant (M) of the reaction between antibodies or DVD-Igs and the target antigen is then calculated from the kinetic rate constants by the following formula: KD=koff/kₒₙ. Binding is recorded as a function of time and kinetic rate constants are calculated.

[3] = target: T6, Repulsive Guidence Molecule A; test: direct bind ELISA, antigen on plate; parent antibody
Procedure: as §1, §2, §3

Aβ1-42 [4] = target: T3, Aβ1-42; test: Aβ 1-42 ELISA, peptide on plate; N-terminal VD
Procedure: as §4, §5, §6

RAGE/FC Chimera [5] = target: T7, RAGE/FC Chimera (UniProt Q15109 23-342); test: direct bind ELISA, antigen on plate; C-terminal VD
T7 construct: extracellular domain; Bought reagent; not shown: Fc region of the bought chimera
T7 sequence (Q15109 23-342, change not shown): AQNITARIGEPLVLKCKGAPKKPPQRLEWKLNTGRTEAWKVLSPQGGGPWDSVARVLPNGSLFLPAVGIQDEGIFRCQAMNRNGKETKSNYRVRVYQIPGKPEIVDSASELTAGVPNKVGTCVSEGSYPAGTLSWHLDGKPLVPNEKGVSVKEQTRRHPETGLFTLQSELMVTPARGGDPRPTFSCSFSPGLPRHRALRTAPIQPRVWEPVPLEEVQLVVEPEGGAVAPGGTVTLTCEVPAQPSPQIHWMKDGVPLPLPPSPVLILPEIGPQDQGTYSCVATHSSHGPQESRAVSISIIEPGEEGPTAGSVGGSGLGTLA
Procedure: as §1, §2, §3

RAGE/FC Chimera [6] = target: T7, RAGE/FC Chimera; test: direct bind ELISA, antigen on plate; parent antibody
Procedure: as §1, §2, §3

RAGE/FC Chimera [7] = target: T7, RAGE/FC Chimera; test: direct bind ELISA, antigen on plate; N-terminal VD
Procedure: as §1, §2, §3

B1: DVD230 (bispecific antibody, human IgG1, kappa)
heavy: not shown
light: QSVLTQPPSVSAAPGQKVTISCSGSSSNIENNHVSWYQQLPGTAPKLLIYDNNKRPSGIPDRFSGSKSGTSATLGITGLQTGDEADYYCETWDTSLSAGRVFGGGTKLTVLGQPKAAPDVVMTQSPLSLPVTPGEPASISCKSSQSLLDSDGKTYLNWLLQKPGQSPQRLIYLVSKLDSGVPDRFSGSGSGTDFTLKISRVEAEDVGVYYCWQGTHFPRTFGQGTKVEIKRTVAAPSVFIFPPSDEQLKSGTASVVCLLNNFYPREAKVQWKVDNALQSGNSQESVTEQDSKDSTYSLSSTLTLSKADYEKHKVYACEVTHQGLSSPVTKSFNRGEC
notes: DVD-Ig; also called VD230H/VD230L
EC50 (IGF-I): 4.84 nM
EC50 (IGF-II): 2.44 nM
EC50 (Aβ1-42 [1]): 0.039 nM

B2: DVD232 (bispecific antibody, human IgG1, kappa)
heavy: not shown
light: EIVMTQSPATLSVSPGERATLSCRASESISSNLAWYQQKPGQAPRLFIYTASTRATDIPARFSGSGSGTEFTLTISSLQSEDFAVYYCQQYNNWPSITFGQGTRLEIKRTVAAPDVVMTQSPLSLPVTPGEPASISCKSSQSLLDSDGKTYLNWLLQKPGQSPQRLIYLVSKLDSGVPDRFSGSGSGTDFTLKISRVEAEDVGVYYCWQGTHFPRTFGQGTKVEIKRTVAAPSVFIFPPSDEQLKSGTASVVCLLNNFYPREAKVQWKVDNALQSGNSQESVTEQDSKDSTYSLSSTLTLSKADYEKHKVYACEVTHQGLSSPVTKSFNRGEC
notes: DVD-Ig; also called VD232H/VD232L
EC50 (IL-18): 0.68 nM
EC50 (Aβ1-42 [1]): 0.048 nM

B3: AB032 (antibody, human IgG1, kappa, V domains shown)
VH: QVQLVESGGGVVQPGRSLRLSCAASGFTFSVYGMNWVRQAPGKGLEWVAIIWYDGDNQYYADSVKGRFTISRDNSKNTLYLQMNGLRAEDTAVYYCARDLRTGPFDYWGQGTLVTVSS
VL: EIVLTQSPDFQSVTPKEKVTITCRASQSIGSSLHWYQQKPDQSPKLLIKYASQSFSGVPSRFSGSGSGTDFTLTINSLEAEDAAAYYCHQSSSLPFTFGPGTKVDIKR
notes: also called IL-1β parent antibody
EC50 (Recombinant Human IL-1β): 5.27 nM

B4: AB059 (antibody, human IgG1, kappa, V domains shown)
VH: EVQLVESGGGLVQPGSSLKLSCVASGFTFSNYGMNWIRQAPKKGLEWIGMIYYDSSEKHYADSVKGRFTISRDNSKNTLYLEMNSLRSEDTAIYYCAKGTTPDYWGQGVMVTVSS
VL: DVVLTQTPVSLSVTLGDQASMSCRSSQSLEYSDGYTFLEWFLQKPGQSPQLLIYEVSNRFSGVPDRFIGSGSGTDFTLKISRVEPEDLGVYYCFQATHDPLTFGSGTKLEIKR
notes: also called RGMa parent antibody; RGMA parent antibody
Kd [2]: 0.64 nM
koff [2]: 0.000609 s⁻¹
kon [2]: 952000 M⁻¹ s⁻¹
EC50 [3]: 0.13 nM

B5: DVD294 (bispecific antibody, human IgG1, kappa)
heavy: not shown
light: DVVMTQSPLSLPVTPGEPASISCKSSQSLLDSDGKTYLNWLLQKPGQSPQRLIYLVSKLDSGVPDRFSGSGSGTDFTLKISRVEAEDVGVYYCWQGTHFPRTFGQGTKVEIKRTVAAPDIVMTQSQKFMSTSVGDRVSITCKASQNVGTAVAWYQQRPGQSPKLLIFSASNRYTGVPDRFTGSGSGTDFTLTLSNMQPEDLADYFCQQYSSYPLTFGVGTKLELKRTVAAPSVFIFPPSDEQLKSGTASVVCLLNNFYPREAKVQWKVDNALQSGNSQESVTEQDSKDSTYSLSSTLTLSKADYEKHKVYACEVTHQGLSSPVTKSFNRGEC
notes: DVD-Ig; also called VD294H/VD294L
EC50 (Aβ1-42 [4]): 0.014 nM
EC50 (RAGE/FC Chimera [5]): 1.53 nM

B6: DVD233 (bispecific antibody, human IgG1, kappa)
heavy: not shown
light: DVVMTQSPLSLPVTPGEPASISCKSSQSLLDSDGKTYLNWLLQKPGQSPQRLIYLVSKLDSGVPDRFSGSGSGTDFTLKISRVEAEDVGVYYCWQGTHFPRTFGQGTKVEIKRTVAAPQIVLIQSPAIMSASPGEKVTMTCSASSSVSYMYWYQQKPGSSPRLLIYDTSNLASGVPVRFSGSGSGTSYSLTISRMEAEDAATYYCQQWSGYPYTFGGGTKLEIKRTVAAPSVFIFPPSDEQLKSGTASVVCLLNNFYPREAKVQWKVDNALQSGNSQESVTEQDSKDSTYSLSSTLTLSKADYEKHKVYACEVTHQGLSSPVTKSFNRGEC
notes: DVD-Ig; also called VD233H/VD233L
EC50 (Aβ1-42 [4]): 0.013 nM

B7: AB060 (antibody, human IgG1, kappa, V domains shown)
VH: QIQLVQSGPELKKPGETVKISCKASGYTFTNFGMNWVKQAPGKGLKWMGYINTNTGESIYSEEFKGRFAFSLETSASTAYLQINNLKNEDTATYFCARSRMVTAYGMDYWGQGTSVTVSS
VL: DIVMTQSQKFMSTSVGDRVSITCKASQNVGTAVAWYQQRPGQSPKLLIFSASNRYTGVPDRFTGSGSGTDFTLTLSNMQPEDLADYFCQQYSSYPLTFGVGTKLELKR
EC50 (RAGE/FC Chimera [6]): 1.69 nM and 0.64 nM

B8: DVD293 (bispecific antibody, human IgG1, kappa)
heavy: not shown
light: DIVMTQSQKFMSTSVGDRVSITCKASQNVGTAVAWYQQRPGQSPKLLIFSASNRYTGVPDRFTGSGSGTDFTLTLSNMQPEDLADYFCQQYSSYPLTFGVGTKLELKRTVAAPDVVMTQSPLSLPVTPGEPASISCKSSQSLLDSDGKTYLNWLLQKPGQSPQRLIYLVSKLDSGVPDRFSGSGSGTDFTLKISRVEAEDVGVYYCWQGTHFPRTFGQGTKVEIKRTVAAPSVFIFPPSDEQLKSGTASVVCLLNNFYPREAKVQWKVDNALQSGNSQESVTEQDSKDSTYSLSSTLTLSKADYEKHKVYACEVTHQGLSSPVTKSFNRGEC
notes: DVD-Ig; also called VD293H/VD293L
EC50 (RAGE/FC Chimera [7]): 7.32 nM
EC50 (Aβ1-42 [1]): 0.048 nM
